Test results from IntAct's records for PubMed 9845372.

B1: Double-strand break repair protein MRE11 (Saccharomyces cerevisiae), P32829 (parent)
chain: MDYPDPDTIRILITTDNHVGYNENDPITGDDSWKTFHEVMMLAKNNNVDMVVQSGDLFHVNKPSKKSLYQVLKTLRLCCMGDKPCELELLSDPSQVFHYDEFTNVNYEDPNFNISIPVFGISGNHDDASGDSLLCPMDILHATGLINHFGKVIESDKIKVVPLLFQKGSTKLALYGLAAVRDERLFRTFKDGGVTFEVPTMREGEWFNLMCVHQNHTGHTNTAFLPEQFLPDFLDMVIWGHEHECIPNLVHNPIKNFDVLQPGSSVATSLCEAEAQPKYVFILDIKYGEAPKMTPIPLETIRTFKMKSISLQDVPHLRPHDKDATSKYLIEQVEEMIRDANEETKQKLADDGEGDMVAELPKPLIRLRVDYSAPSNTQSPIDYQVENPRRFSNRFVGRVANGNNVVQFYKKRSPVTRSKKSGINGTSISDRDVEKLFSESGGELEVQTLVNDLLNKMQLSLLPEVGLNEAVKKFVDKDEKTALKEFISHEISNEVGILSTNEEFLRTDDAEEMKALIKQVKRANSVRPTPPKENDETNFAFNGNGLDSFRSSNREVRTGSPDITQSHVDNESRITHISQAESSKPTSKPKRVRTATKKKIPAFSDSTVISDAENELGDNNDAQDDVDIDENDIIMVSTDEEDASYGLLNGRKTKTKTRPAASTKTASRRGKGRASRTPKTDILGSLLAKKRK
partner: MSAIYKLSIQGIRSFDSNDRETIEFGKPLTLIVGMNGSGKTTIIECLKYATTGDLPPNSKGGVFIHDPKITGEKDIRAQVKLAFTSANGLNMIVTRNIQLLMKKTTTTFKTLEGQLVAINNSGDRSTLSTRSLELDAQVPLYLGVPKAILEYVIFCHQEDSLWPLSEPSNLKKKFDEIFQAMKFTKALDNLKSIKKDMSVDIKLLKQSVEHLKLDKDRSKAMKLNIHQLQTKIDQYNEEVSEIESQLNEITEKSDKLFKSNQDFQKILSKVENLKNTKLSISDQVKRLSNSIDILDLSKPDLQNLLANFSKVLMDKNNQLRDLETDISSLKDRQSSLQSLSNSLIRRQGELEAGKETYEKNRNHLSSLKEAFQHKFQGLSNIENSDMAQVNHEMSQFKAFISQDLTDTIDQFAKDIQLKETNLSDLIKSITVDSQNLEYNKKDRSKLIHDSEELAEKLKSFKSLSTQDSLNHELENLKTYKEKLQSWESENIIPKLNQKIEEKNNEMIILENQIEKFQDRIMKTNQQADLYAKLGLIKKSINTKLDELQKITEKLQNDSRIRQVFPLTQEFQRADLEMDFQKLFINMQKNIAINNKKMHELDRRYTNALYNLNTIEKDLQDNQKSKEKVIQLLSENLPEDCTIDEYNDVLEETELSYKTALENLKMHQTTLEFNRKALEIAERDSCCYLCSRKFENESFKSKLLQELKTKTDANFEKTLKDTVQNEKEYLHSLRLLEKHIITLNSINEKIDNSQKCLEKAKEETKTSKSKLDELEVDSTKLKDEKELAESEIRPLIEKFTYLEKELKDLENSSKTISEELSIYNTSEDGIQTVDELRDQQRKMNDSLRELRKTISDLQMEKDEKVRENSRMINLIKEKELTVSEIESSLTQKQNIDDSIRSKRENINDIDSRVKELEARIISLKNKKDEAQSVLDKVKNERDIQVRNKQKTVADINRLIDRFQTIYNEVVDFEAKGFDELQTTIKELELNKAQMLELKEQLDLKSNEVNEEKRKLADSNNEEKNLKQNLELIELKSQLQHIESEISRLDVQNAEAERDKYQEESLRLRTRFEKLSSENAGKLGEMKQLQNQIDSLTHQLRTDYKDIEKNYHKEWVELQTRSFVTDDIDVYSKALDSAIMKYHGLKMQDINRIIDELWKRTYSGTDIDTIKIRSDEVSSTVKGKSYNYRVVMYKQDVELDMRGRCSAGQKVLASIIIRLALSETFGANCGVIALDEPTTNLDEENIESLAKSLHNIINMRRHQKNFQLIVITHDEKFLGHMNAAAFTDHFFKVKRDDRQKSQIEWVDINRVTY

Variants of: B1
Conditions: with rad50_yeast RAD50, P12753

| effect of a mutation on the interaction | Variant |
| --- | --- |
| disrupting interaction | H213Y;L225I |
